Here are results for two proteins from paper PMC3576024.

What all share (test): DTNB colorimetric detection of released CoA, Michaelis-Menten fit
Assay type in all cases: biochemical, Aedes aegypti
Common to all, as to settings: apparent Km; 0.4 mM acetyl-CoA, 50 mM Tris-HCl, 1.0 mg/mL BSA, room temperature

Substrate in data set [1]: NC[C@H](O)c1ccc(O)c(O)c1
Substrate in data set [2]: NCCc1c[nH]c2ccccc12
Substrate in data set [3]: NCCc1c[nH]c2ccc(O)cc12
Substrate in data set [4]: NC[C@H](O)c1ccc(O)cc1
Substrate in data set [5]: NCCc1ccc(O)c(O)c1
Substrate in data set [6]: NCCc1ccc(O)cc1

For orientation: Km means the concentration of substrate that gives half-maximal velocity. A word on the kcat: it is the number of substrate molecules converted per active site and unit of time at saturation. One may read the kcat/Km as the turnover number divided by the Michaelis constant.

B1: aaNAT1 (PaaNAT1) (Aedes aegypti) (protein)
chain: MASKMSTVSSDAKGAIVKPSSTDDSTLPLDEVDTNISIELITEDDAEDVLKLLKKFFFKDEPLNTFVNLGECKELEKYSTKNLHEHCSFKAVNGRGEIVGVNINGLINRPKETDEPPAKLADGCEHPKFKKIMALMDYVDEHFNIFDLYPDVDRMLDVKIMSVDSRYRGLGIAGKLTDRTMQYVKDNNIKLVHVLCSSHFSARVMEKLDFEEVYKLDYSDYLVNGEQVFDPEKPHTAVRILTKRLA
Take B1: the Km in data set [1] turned out to be 0.16 ± 0.04 mM; in data set [2] it was 0.16 ± 0.04 mM; in data set [3], 0.23 ± 0.06 mM; in data set [4] it was 0.14 ± 0.08 mM; in data set [5], 0.19 ± 0.07 mM; in data set [6], 0.17 ± 0.04 mM. For the same protein, the kcat amounted to 7.76 ± 0.577 s⁻¹ in data set [1]; 7.34 ± 0.528 s⁻¹ in data set [2]; 7.54 ± 0.595 s⁻¹ in data set [3]; 7.26 ± 1.12 s⁻¹ in data set [4]; 7.3 ± 0.742 s⁻¹ in data set [5]; 6.77 ± 0.413 s⁻¹ in data set [6]. In addition, the kcat/Km was found to be 48500 M⁻¹ s⁻¹ in data set [1]; 45900 M⁻¹ s⁻¹ in data set [2]; 32800 M⁻¹ s⁻¹ in data set [3]; 51900 M⁻¹ s⁻¹ in data set [4]; 38400 M⁻¹ s⁻¹ in data set [5]; 39800 M⁻¹ s⁻¹ in data set [6].

B2: aaNAT2 (PaaNAT2) (Aedes aegypti) (protein)
chain: MLDSKLNNIRFETISSKYYDDVIEHLRQTFFADEPLNKAVNLTRPGQGHPLLEQHSLSTLKDNVSIMAISNDGDIAGVALNGILYGNTDIEKSREKLNEIQDESFKKIFKLLYEQNLKINLFKQFDVDKIFEIRILSVDSRFRGKGLAKKLIEKSEELALDRGFQVMKTDATGAFSQRVVSSLGFITKCEINYTDYLDENGEQIFVVDPPHEKLKIMCKVIN
For the protein B2, the Km is 0.42 ± 0.06 mM in data set [1]; 0.17 ± 0.04 mM in data set [2]; 0.23 ± 0.05 mM in data set [3]; 0.27 ± 0.04 mM in data set [4]; 0.13 ± 0.05 mM in data set [5]; 0.17 ± 0.03 mM in data set [6]. The turnover number (kcat) in data set [1] was found to be 3.47 ± 0.192 s⁻¹; in data set [2], 3.05 ± 0.197 s⁻¹; in data set [3], 3.16 ± 0.198 s⁻¹; in data set [4] it was 3.65 ± 0.175 s⁻¹; in data set [5], 2.56 ± 0.25 s⁻¹; in data set [6], 3.17 ± 0.183 s⁻¹. Besides, the kcat/Km is 8270 M⁻¹ s⁻¹ in data set [1]; 17900 M⁻¹ s⁻¹ in data set [2]; 13800 M⁻¹ s⁻¹ in data set [3]; 13500 M⁻¹ s⁻¹ in data set [4]; 19700 M⁻¹ s⁻¹ in data set [5]; 18600 M⁻¹ s⁻¹ in data set [6].
